Data as given in patent US20140093496A1 (Chugai, published 2014).
Changes are numbered by the printed parent chain. Numbers in names are those of the source.

Columns and labels:
[1] = target: T1, FcγRIIIa extracellular domain with C-terminal His tag (allotype not given) (human, UniProt P08637 17-208); assay: SPR (Biacore): antibody captured on the chip, FcγR as analyte; amount bound per amount captured, relative to GpH7-B3/GpL16-k0 without mutation = 100; FcγR concentration not shown
T1 construct: extracellular domain; also called CD16A; not shown: His tag at the C terminus
Text: (§1) B3 variants were expressed and purified using the method of Reference Example 1, and the binding to each FcγR (FcγRIa, FcγRIIa type H, FcγRIIa type R, FcγRIIb, and FcγRIIIa) was comprehensively evaluated using the method of Reference Example 2.
(§2) Figures were produced based on the results of interaction analysis with each FcγR by the method below. […] The value obtained by multiplying this value by 100 was used as an indicator of the relative FcγR-binding activity of each variant.

[2] = target: T2, FcγRIa extracellular domain with C-terminal His tag (human, UniProt P12314 16-292); assay: SPR (Biacore): antibody captured on the chip, FcγR as analyte; amount bound per amount captured, relative to GpH7-B3/GpL16-k0 without mutation = 100
T2 construct: whole entry named; also called FcgRIa; CD64A; not shown: His tag at the C terminus
Text: as §1, §2

[3] = target: T3, FcγRIIb extracellular domain with C-terminal His tag (human, UniProt P31994 43-217); assay: as above
T3 construct: extracellular domain; also called FcgRIIb; FcγRIIb extracellular region; not shown: His tag at the C terminus
T3 sequence (looked up): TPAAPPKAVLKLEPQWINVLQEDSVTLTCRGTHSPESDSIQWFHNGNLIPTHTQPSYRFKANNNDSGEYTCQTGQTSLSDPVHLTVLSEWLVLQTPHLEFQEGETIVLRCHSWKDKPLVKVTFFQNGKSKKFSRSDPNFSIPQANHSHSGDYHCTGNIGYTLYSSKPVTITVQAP
Text: as §1, §2

[4] = target: T4, FcγRIIa type H extracellular domain with C-terminal His tag (human, UniProt P12318 34-217); assay: as above
T4 construct: extracellular domain; also called FcγRIIa H; FcγRIIaH; not shown: His tag at the C terminus
T4 sequence (looked up): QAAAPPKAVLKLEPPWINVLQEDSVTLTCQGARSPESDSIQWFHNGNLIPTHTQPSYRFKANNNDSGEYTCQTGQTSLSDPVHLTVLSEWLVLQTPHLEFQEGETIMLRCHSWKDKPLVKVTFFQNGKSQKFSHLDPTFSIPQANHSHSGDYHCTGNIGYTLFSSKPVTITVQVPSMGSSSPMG
Text: as §1, §2

[5] = target: T3, FcγRIIb extracellular domain with …; assay: SPR, FcγR bound/antibody captured
Text: (§3) IL6R-L (SEQ ID NO: 22) was utilized as a common antibody L chain for all of the antibodies. These variants were expressed, purified, and expressed by the method of Reference Example 1. […] Interactions of each PD variant with FcγRIIa type R and FcγRIIb were comprehensively evaluated by the method of Reference Example 2.
(§4) With regard to the results of analyzing the interaction with the respective FcγRs, a figure was produced according to the following method.

[6] = target: T5, FcγRIIa type R extracellular domain with C-terminal His tag (human, UniProt P12318 34-217); assay: SPR, FcγR bound/antibody captured
T5 chain: T4 sequence (looked up) with H134R
Text: as §3, §4

[7] = target: T3, FcγRIIb extracellular domain with …; assay: SPR (Biacore), antibody captured, FcγR analyte
Text: (§5) Furthermore, KD(IIaR)/KD(IIb) and KD(IIaH)/KD(IIb) in the table respectively show the value obtained by dividing the KD value of each variant for FcγRIIaR by the KD value of each variant for FcγRIIb, and the value obtained by dividing the KD value of each variant for FcγRIIaH by the KD value of each variant for FcγRIIb. KD(IIb) of the parent polypeptide/KD(IIb) of the altered polypeptide refers to a value obtained by dividing the KD value of the parent polypeptide for FcγRIIb by the KD value of each variant for FcγRIIb.
(§6) Kinetic analyses for calculating the KD values of each altered antibody for FcγR were performed according to the following method. First, antibodies of interest were captured onto the above-mentioned sensor chips, and an Fcγ receptor diluted with the running buffer was allowed to interact. The Biacore Evaluation Software was used to globally fit the measured results to the obtained sensorgram using the 1:1 Langmuir binding model, and the association rate constant ka (L/mol/s) and the dissociation rate constant kd (1/s) were calculated; and from those values the dissociation constants KD (mol/L) were calculated.

[8] = target: T6, FcγRIIIa type V extracellular domain with C-terminal His tag (human, UniProt P08637 17-208); assay: SPR (Biacore), antibody captured, FcγR analyte
T6 construct: extracellular domain; also called FcγRIIIaV; FcgRIIIaV; not shown: His tag at the C terminus
Text: as §5, §6

[9] = target: T5, FcγRIIa type R extracellular domain …; assay: SPR (Biacore), antibody captured, FcγR analyte
Text: as §5, §6

[10] = target: T4, FcγRIIa type H extracellular domain …; assay: SPR (Biacore), antibody captured, FcγR analyte
Text: as §5, §6

[11] = target: T7, FcγRIIa type R extracellular domain, C-terminal His tag (human, UniProt P12318 34-217); assay: SPR (Biacore), antibody captured, FcγR as analyte
T7 construct: extracellular domain; also called FcgRIIaR; FcγRIIaR; not shown: His tag at the C terminus
T7 sequence (looked up): T4 sequence (looked up) with H134R
Text: as §5, with “respectively represent” for “respectively show”, “to the” for “to a”
as §6

[12] = target: T8, FcγRIa extracellular domain, C-terminal His tag (human, UniProt P12314 16-292); assay: SPR (Biacore), antibody captured, FcγR as analyte
T8 construct: the whole entry is named; also called FcgRIa; CD64A; not shown: His tag at the C terminus
Text: as §5, with “respectively represent” for “respectively show”, “to the” for “to a”
as §6

T6 sequence (P08637 17-208 F176V): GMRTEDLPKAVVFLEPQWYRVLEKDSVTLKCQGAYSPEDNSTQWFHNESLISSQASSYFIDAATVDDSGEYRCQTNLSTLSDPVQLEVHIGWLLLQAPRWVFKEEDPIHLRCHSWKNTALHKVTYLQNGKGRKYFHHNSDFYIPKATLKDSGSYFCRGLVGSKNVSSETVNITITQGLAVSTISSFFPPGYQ
T8 sequence (P12314 16-292): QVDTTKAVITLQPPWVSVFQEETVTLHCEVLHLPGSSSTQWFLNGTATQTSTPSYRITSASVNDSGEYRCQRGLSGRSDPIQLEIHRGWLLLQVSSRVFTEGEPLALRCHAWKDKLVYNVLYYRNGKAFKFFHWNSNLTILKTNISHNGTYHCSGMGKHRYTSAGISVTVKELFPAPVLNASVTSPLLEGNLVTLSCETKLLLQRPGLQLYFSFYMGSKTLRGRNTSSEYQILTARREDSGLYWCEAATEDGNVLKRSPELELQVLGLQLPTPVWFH
T2 sequence (P12314 16-292): as above
T1 sequence (P08637 17-208): as the sequence (P08637 17-208 F176V) above, with V160F counted along it

B1: B3 variant of GpH7-B3/GpL16-k0 with mutation A (Pro at position 238 (EU numbering) substituted with Asp) (antibody, human IgG1, kappa)
heavy: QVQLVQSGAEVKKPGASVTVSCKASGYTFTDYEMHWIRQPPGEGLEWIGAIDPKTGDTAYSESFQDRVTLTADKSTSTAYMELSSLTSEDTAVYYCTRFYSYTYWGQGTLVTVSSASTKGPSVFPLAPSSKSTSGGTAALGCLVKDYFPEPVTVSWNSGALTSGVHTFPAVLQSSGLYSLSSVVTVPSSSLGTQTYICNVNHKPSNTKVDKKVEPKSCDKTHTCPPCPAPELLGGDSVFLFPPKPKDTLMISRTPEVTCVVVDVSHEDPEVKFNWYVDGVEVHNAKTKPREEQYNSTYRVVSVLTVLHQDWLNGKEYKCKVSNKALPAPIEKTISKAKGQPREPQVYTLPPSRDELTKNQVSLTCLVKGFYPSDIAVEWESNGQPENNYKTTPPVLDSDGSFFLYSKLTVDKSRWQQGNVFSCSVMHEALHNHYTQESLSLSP
light: DIVMTQSPLSLPVTPGEPASISCQASESLVHSNRNTYLHWYLQKPGQSPQLLIYKVSNRFSGVPDRFSGSGSGTDFTLKISRVEAEDVGVYYCSQNTHVPPTFGQGTKVEIERTVAAPSVFIFPPSDEQLKSGTASVVCLLNNFYPREAKVQWKVDNALQSGNSQESVTEQDSKDSTYSLSSTLTLSKADYEKHKVYACEVTHQGLSSPVTKSFNRGEC
notes: copies: 2 + 2
B1: no binding [1]; binds [2]; binds [3].

B2: B3 variant of GpH7-B3/GpL16-k0 with mutation B (Leu at position 328 (EU numbering) substituted with Glu) (antibody, human IgG1, kappa)
heavy: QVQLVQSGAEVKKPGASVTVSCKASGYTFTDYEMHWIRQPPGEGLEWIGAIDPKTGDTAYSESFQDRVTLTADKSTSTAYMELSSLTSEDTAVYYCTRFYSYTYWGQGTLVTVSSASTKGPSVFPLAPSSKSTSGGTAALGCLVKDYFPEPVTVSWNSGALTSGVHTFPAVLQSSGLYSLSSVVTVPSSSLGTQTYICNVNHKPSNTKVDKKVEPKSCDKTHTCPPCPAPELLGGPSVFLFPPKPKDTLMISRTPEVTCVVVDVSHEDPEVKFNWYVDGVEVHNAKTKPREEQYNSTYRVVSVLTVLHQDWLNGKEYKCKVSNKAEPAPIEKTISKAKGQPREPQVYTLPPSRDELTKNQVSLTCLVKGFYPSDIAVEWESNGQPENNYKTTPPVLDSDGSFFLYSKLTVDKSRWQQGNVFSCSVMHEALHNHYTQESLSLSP
light: B1 light
notes: copies: 2 + 2
B2: binds [2]; binds [3]; binds [4].

B3: IL6R-F652/IL6R-L (antibody, human IgG1, kappa)
heavy: QVQLQESGPGLVKPSETLSLTCAVSGHSISHDHAWSWVRQPPGEGLEWIGFISYSGITNYNPSLQGRVTISRDNSKNTLYLQMNSLRAEDTAVYYCARSLARTTAMDYWGEGTLVTVSSASTKGPSVFPLAPSSKSTSGGTAALGCLVKDYFPEPVTVSWNSGALTSGVHTFPAVLQSSGLYSLSSVVTVPSSSLGTQTYICNVNHKPSNTKVDKKVEPKSCDKTHTCPPCPAPELLGGDSVFLFPPKPKDTLYISRTPEVTCVVVDVSHEDPEVKFNWYVDGVEVHNAKTKPREEQYNSTYRVVSVLTVLHQDWLNGKEYKCKVSNKALPAPIEKTISKAKGQPREPQVYTLPPSRDELTKNQVSLTCLVKGFYPSDIAVEWESNGQPENNYKTTPPVLDSDGSFFLYSKLTVDKSRWQQGNVFSCSVMHEALHYHYTQKSLSLSP
light: not shown
notes: IL6R-F11 with P238D; copies: 2 + 2
B3 was tested, and the “relative FcγRIIb-binding activity” value [5] was 100 % of IL6R-F652/IL6R-L and the “relative FcγRIIaR-binding activity” value [6] was 100 % of IL6R-F652/IL6R-L.

B4: IL6R-PD079/IL6R-L (antibody, human IgG1, kappa)
heavy: B3 heavy with G239A
light: not shown
notes: IL6R-F11 with P238D/G237A; copies: 2 + 2
In the case of B4, the Kd [7] is reported as 3 µM, the Kd [8] is reported as 37 µM and the Kd [9] is reported as 32 µM.

B5: IL6R-PD080/IL6R-L (antibody, human IgG1, kappa)
heavy: B3 heavy with G239D
light: not shown
notes: IL6R-F11 with P238D/G237D; copies: 2 + 2
Work on B5 yielded a Kd [7] of 2 µM, a Kd [8] of 43 µM and a Kd [9] of 21 µM.

B6: IL6R-PD087/IL6R-L (antibody, human IgG1, kappa)
heavy: B3 heavy with G239M
light: not shown
notes: IL6R-F11 with P238D/G237M; copies: 2 + 2
With B6 the Kd [8] was 37 µM, the Kd [9] was 22 µM and the Kd [10] was 20 µM.

B7: IL6R-2B172/IL6R-L (antibody, human IgG1, kappa)
heavy: B3 heavy with Y254M, V325M, Y436N, K441E
light: not shown
notes: IgG1; P238D/V323M (EU numbering) introduced into IL6R-B3
With B7 the Kd [11] was 6.1 µM and the Kd [12] was 0.003 µM.

B8: IL6R-BP106/IL6R-L (antibody, human IgG1, kappa)
heavy: B3 heavy with Y254M, H270D, Y436N, K441E
light: not shown
notes: IgG1; P238D/H268D (EU numbering) introduced into IL6R-B3
For B8, the Kd [11] was 11 µM and the Kd [12] was 0.004 µM.

B9: IL6R-BP119/IL6R-L (antibody, human IgG1, kappa)
heavy: B3 heavy with Y254M, K328M, Y436N, K441E
light: not shown
notes: IgG1; P238D/K326M (EU numbering) introduced into IL6R-B3
Work on B9 yielded a Kd [11] of 9.9 µM and a Kd [12] of 0.007 µM.
